Test results as given in patent US20260035462A1.
Substitutions are numbered along the chain they refer to.

B1: P1AF1284 H2L2 anti-idiotypic IgG1 (antibody, V domains shown)
VH: QVQLVQSGSELKKPGASVKVSCKASGYTVTDYSMNWVRQAPGQGLEWMGWINTETGEPRYTDDFTGRFVFSLDTSVSTAYLQISSLKAEDTAVYYCAREGDYDVFDYWGQGTLVTVSS
VL: DIVMTQSPDSLAVSLGERATINCKSSKSVSTSSYSYMHWYQQKPGQPPKLLIKYVSYLESGVPDRFSGSGSGTDFTLTISSLQAEDVAVYYCQHSREFPYTFGQGTKLEIK
B2: P1AF1285 H3L2 anti-idiotypic IgG1 (antibody, V domains shown)
VH: B1 VH with D62Q, D63G, T65K
VL: B1 VL
B3: P1AF1286 H3L3 anti-idiotypic IgG1 (antibody, V domains shown)
VH: B1 VH with D62Q, D63G, T65K
VL: B1 VL with K24R, S25A, H94Q
B4: P1AF1287 H7L5 anti-idiotypic IgG1 (antibody, V domains shown)
VH: QVQLVQSGAEVKKPGASVKVSCKASGYTVTDYSMNWVRQAPGQGLEWMGWINTETGEPRYTDDFKGRVTMTRDTSISTAYMELSRLRSDDTAVYYCAREGDYDVFDYWGQGTLVTVSS
VL: B1 VL with K24R, S25A, K53Y
B5: P1AF1281 H1L1 anti-idiotypic IgG1 (antibody, V domains shown)
VH: B1 VH with T65K
VL: B1 VL with K24R, S25A
B6: P1AF1283 H1L2 anti-idiotypic IgG1 (antibody, V domains shown)
VH: B1 VH with T65K
VL: B1 VL

Tests used:
[1] = molecular target: biotinylated anti-human CD3ε antibody (capture surface of Example 6); test: SPR Biacore T200; IgG 1 ug/ml over captured biotinylated anti-human CD3ε antibody, normalised to anti-human IgG surface and to the unstressed sample; sample stressed 14 d/40° C. pH 6.0
[2] = molecular target: biotinylated anti-human CD3ε antibody (capture surface of Example 6); test: SPR Biacore T200; IgG 1 ug/ml over captured biotinylated anti-human CD3ε antibody, normalised to anti-human IgG surface and to the unstressed sample; sample stressed 14 d/37° C. pH 7.4

Binder | Relative active concentrations (%) [1] | Relative active concentrations (%) [2]
B1 | 98% | 93%
B2 | 97% | 94%
B3 | 97% | 87%
B4 | 98% | 80%
B5 | 99% | 93%
B6 | 97% | 94%
